Laboratory results: the supplement of paper PMC12783771
Numbering of substitutions follows the chain as printed. ± gives the standard deviation of the averaged measurements.

B1: library; a variant is named by its letters at X, in order (parent)
chain: MNIQIGELAKRTACPVVTIRFYEQEGLLPPPGRSRGNFRLYGEEHVERLQFIRHCRSLDMPLSXVRTLLSYRKRPDQDCGEVXMLLDEHIRQVESRIGALLELXHHXVELREACSGARPAQSCGILQXLSXCVCXTRGTTAHXSD
B2: library; a variant is named by its letters at X, in order (parent)
chain: B1 chain with X64D, X104K, X107L

Variants of: B1
Experiment: sfGFP reporter fluorescence (15 h) (µM FITC); higher = higher leak
Conditions: library round: Round 3; ligand: none
Procedure: (§1)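 Cell-free biosensing: 1 µL Echo-assembled CFE reactions with linear PbrR variant templates (5 nM) and pPbrR-sfGFP reporter, with 1 µM Pb, 30 µM Zn or no ligand; endpoint sfGFP fluorescence after 15 h at 30 °C calibrated as µM FITC. Round 3 ML-predicted PbrR mutants; up to 3 biological replicates.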

Going from DNKCGAAP H54C C55P H106L to KCVCMDDP V16C, the sfGFP reporter fluorescence rises from 0.04838 ± 0.00034 to 0.185 ± 0.012.

Going from KIVLGDDR H106E to KNVCGADP M60L, the sfGFP reporter fluorescence rises from 0.0556 ± 0.0015 to 3.05 ± 0.41.

First: DSKLGNRA Q121A
Second: DNRCGAAP
The sfGFP reporter fluorescence of the first is lower: 0.044 ± 0.0012 for the first, 1.21 ± 0.066 for the second.

Going from LCKCGAAP V16C H54C C55P H106L to DTKLGMPP V108L, the sfGFP reporter fluorescence falls from 0.0465 ± 0.0012 to 0.0413 ± 0.00089.

Compared with DTKLGMAP V108L, KNVCMDDP M60L P61N is higher in sfGFP reporter fluorescence: 0.0403 ± 0.00095 for the first, 0.987 ± 0.13 for the second.

Going from DTKLGDPR V108L to DNVCMDDP V16C P61N, the sfGFP reporter fluorescence rises from 0.043 ± 0.0024 to 0.092 ± 0.0024.

KFVLGDDP P61T H106A and KNVEGDDP M60L P61N are within error of each other in sfGFP reporter fluorescence: 0.0442 ± 0.0014 for the first, 0.043 ± 0.00089 for the second.

Going from DTKLGSPP Q121A to DNKCGAAP H54C C55A, the sfGFP reporter fluorescence rises from 0.0408 ± 0.0027 to 0.912 ± 0.075.

Variants of: B1
Experiment: sfGFP reporter fluorescence (15 h) (µM FITC); higher = stronger transcriptional activation
Conditions: library round: Round 3; ligand: 1 µM Pb
Procedure: as §1

Compared with DNKCGAAP H54C C55P H106L, KCVCMDDP V16C is higher in sfGFP reporter fluorescence: 0.0446 ± 0.0014 for the first, 1.75 ± 0.16 for the second.

First: KIVLGDDR H106E
Second: KNVCGADP M60L
The sfGFP reporter fluorescence of the first is lower: 0.573 ± 0.037 for the first, 3.59 ± 0.26 for the second.

Going from DSKLGNRA Q121A to DNRCGAAP, the sfGFP reporter fluorescence rises from 0.209 ± 0.008 to 2.35 ± 0.047.

First: LCKCGAAP V16C H54C C55P H106L
Second: DTKLGMPP V108L
The sfGFP reporter fluorescence of the first is lower: 0.04402 ± 0.00034 for the first, 0.144 ± 0.0074 for the second.

Compared with DTKLGMAP V108L, KNVCMDDP M60L P61N is higher in sfGFP reporter fluorescence: 0.0673 ± 0.0042 for the first, 2.86 ± 0.2 for the second.

Going from DTKLGDPR V108L to DNVCMDDP V16C P61N, the sfGFP reporter fluorescence rises from 0.0866 ± 0.0042 to 0.45 ± 0.015.

Going from KFVLGDDP P61T H106A to KNVEGDDP M60L P61N, the sfGFP reporter fluorescence falls from 0.0637 ± 0.0021 to 0.0385 ± 0.00085.

Compared with DTKLGSPP Q121A, DNKCGAAP H54C C55A is higher in sfGFP reporter fluorescence: 0.186 ± 0.0074 for the first, 1.67 ± 0.091 for the second.

Same assay, conditions: library round: Round 3; ligand: 30 µM Zn

Going from DNKCGAAP H54C C55P H106L to KCVCMDDP V16C, the sfGFP reporter fluorescence rises from 0.0485 ± 0.0037 to 0.434 ± 0.039.

Compared with KIVLGDDR H106E, KNVCGADP M60L is higher in sfGFP reporter fluorescence: 0.0612 ± 0.0023 for the first, 3.01 ± 0.067 for the second.

Going from DSKLGNRA Q121A to DNRCGAAP, the sfGFP reporter fluorescence rises from 0.945 ± 0.054 to 2.34 ± 0.039.

First: LCKCGAAP V16C H54C C55P H106L
Second: DTKLGMPP V108L
The sfGFP reporter fluorescence of the first is lower: 0.0492 ± 0.00085 for the first, 0.187 ± 0.0045 for the second.

Going from DTKLGMAP V108L to KNVCMDDP M60L P61N, the sfGFP reporter fluorescence rises from 0.288 ± 0.018 to 2.86 ± 0.26.

Compared with DTKLGDPR V108L, DNVCMDDP V16C P61N is higher in sfGFP reporter fluorescence: 0.142 ± 0.0031 for the first, 0.463 ± 0.01 for the second.

KFVLGDDP P61T H106A and KNVEGDDP M60L P61N are within error of each other in sfGFP reporter fluorescence: 0.0488 ± 0.0034 for the first, 0.047 ± 0.0012 for the second.

First: DTKLGSPP Q121A
Second: DNKCGAAP H54C C55A
The sfGFP reporter fluorescence of the first is lower: 0.3204 ± 0.0016 for the first, 1.92 ± 0.15 for the second.

Variants of: B2
Experiment: sfGFP reporter fluorescence (15 h) (µM FITC); higher = higher leak
Conditions: library round: Round 2; ligand: none
Procedure: (§2)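 Cell-free biosensing: 1 µL Echo-assembled CFE reactions with linear PbrR variant templates (5 nM) and pPbrR-sfGFP reporter, with 1 µM Pb, 30 µM Zn or no ligand; endpoint sfGFP fluorescence after 15 h at 30 °C calibrated as µM FITC. Round 2 ML-predicted PbrR mutants; up to 3 biological replicates.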

Going from NADAP K104R to SADAP, the sfGFP reporter fluorescence falls from 0.123 ± 0.0024 to 0.0791 ± 0.013.

Compared with TGAAP, NGAAF E112D is higher in sfGFP reporter fluorescence: 0.0444 ± 0.0012 for the first, 0.0594 ± 0.0017 for the second.

First: NEDAT
Second: NADPP V108L L129M
The sfGFP reporter fluorescence of the first is lower: 0.0492 ± 0.001 for the first, 0.0617 ± 0.0065 for the second.

For NADDP P61N D64K K104V, the sfGFP reporter fluorescence was 0.917 ± 0.079.

Variants of: B2
Experiment: sfGFP reporter fluorescence (15 h) (µM FITC); higher = stronger transcriptional activation
Conditions: library round: Round 2; ligand: 1 µM Pb
Procedure: as §2

Compared with NADAP K104R, SADAP is lower in sfGFP reporter fluorescence: 0.419 ± 0.072 for the first, 0.19 ± 0.019 for the second.

Compared with TGAAP, NGAAF E112D is higher in sfGFP reporter fluorescence: 0.0747 ± 0.0046 for the first, 0.0886 ± 0.0049 for the second.

Going from NEDAT to NADPP V108L L129M, the sfGFP reporter fluorescence rises from 0.0597 ± 0.0011 to 0.0681 ± 0.0059.

With NADDP P61N D64K K104V the sfGFP reporter fluorescence was 1.61 ± 0.16.

Same assay, conditions: library round: Round 2; ligand: 30 µM Zn

NADAP K104R and SADAP are within error of each other in sfGFP reporter fluorescence: 2.34 ± 0.033 for the first, 2.33 ± 0.44 for the second.

Compared with TGAAP, NGAAF E112D is higher in sfGFP reporter fluorescence: 0.359 ± 0.0081 for the first, 0.82 ± 0.062 for the second.

First: NEDAT
Second: NADPP V108L L129M
The sfGFP reporter fluorescence of the first is lower: 0.594 ± 0.053 for the first, 0.734 ± 0.067 for the second.

Variant NADDP P61N D64K K104V has a sfGFP reporter fluorescence of 3.1 ± 0.27.
